Measured values from patent US7527943B2, “Compositions of orthogonal glutamyl-tRNA and aminoacyl-tRNA synthetase pairs and uses thereof” (The Scripps Research Institute, priority 2003, dated 2009).

How the values were obtained:
[1] = test system: β-lactamase reporter gene containing an amber mutation at the permissive site Ala184; assay type: cell-based, E. coli; conditions: for ampicillin IC50 fold greater with AE(GC) tRNA than with AE(GU) tRNA: same synthetase co-expressed
Description: Ampicillin IC50 value measurements: To examine the orthogonality of tRNAs, 10 μL of E. coli DH10B cells (1 cfu/μL) carrying a tRNA-expressing plasmid were plated on a series of LB agar plates containing chloramphenicol and varying concentrations of ampicillin. To measure the IC50 values for cells carrying both tRNA- and synthetase-expressing plasmids, cells were plated on LB agar plates containing chloramphenicol, kanamycin, and varying concentrations of ampicillin. In the initial series, cells were plated on five ampicillin concentrations varying from 0 to 1000 μg/mL and incubated overnight at 37° C. In subsequent series, cells were plated on a narrower ampicillin concentration range surrounding the value initial ampicillin IC50 value estimate. […] Measurements were made in duplicate or triplicate for each cell strain.
Orthogonality of tRNAs: To test the activity and cross-reactivity of the AE(GU), AQ(GU), and AQ(GC) tRNAs, their genes were inserted into plasmid pACKO-A184TAG. E. coli cells were transformed with the resulting plasmids, pAC-AE(GU), pAC-AQ(GU), and pAC-AQ(GC), and the ampicillin IC50 values for the cells were assayed. The tRNA-expressing pAC-based plasmids carry a β-lactamase reporter gene containing an amber mutation at the permissive site Ala184, which serves as a useful reporter for amber codon suppression. Acylation of an amber suppressor tRNA causes the incorporation of the activated amino acid at position 184 of β-lactamase, resulting in suppression of the amber stop codon, production of active full-length β-lactamase and resistance to ampicillin. Because an orthogonal tRNA should not cross-react with endogenous aminoacyl-tRNA synthetases, strains transformed with an orthogonal suppressor tRNA alone should survive only on low concentrations of ampicillin. To assess the orthogonality of designed tRNAs, E. coli transformants were plated on LB agar plates containing varying concentrations of ampicillin (FIG. 2).

whole halobacterial tRNA = experiment: in vitro aminoacylation assay with [3H]-glutamic acid, whole halobacterial tRNA; assay type: biochemical, Halobacterium sp. NRC-1; conditions: 750 nM synthetase, 15 minutes at 37° C.
Description: (§1) In vitro aminoacylation assays: Reactions were carried out as described previously (see, e.g., Hoben, P. and Soll, D. (1985) Glutaminyl-tRNA synthetase of Escherichia coli. Methods Enzymol., 113:55-59). Each 20-μL reaction contained 50 mM Tris-HCl (pH 7.5), 30 mM KCl, 20 mM MgCl2, 0.1 mg/mL BSA, 5 mM glutathione, 2.5 mM ATP, 100 nM 1-[G-^3H]Glutamic acid (Amersham), 750 nM aminoacyl-tRNA synthetase, and 40 μM whole halobacterial tRNA. Reactions were allowed to proceed for 15 minutes at 37° C.
Orthogonality of archaeal glutamyl-tRNA synthetases in E. coli: The ampicillin IC50 measurements described above provide insights into the orthogonality of consensus-designed tRNAs, but provide no information about the orthogonality of archaeal glutamyl-tRNA synthetases in E. coli. To investigate synthetase orthogonality, the AfERS, MnERS, MtERS, and PhERS genes were inserted into a protein overexpression vector. E. coli glutamyl-tRNA synthetase (EcERS) was inserted into the same vector for use as a control. Synthetases were overexpressed in E. coli, purified to homogeneity, and used in an in vitro aminoacylation assay with whole tRNA prepared from either E. coli or the halophilic archaebacterium Halobacterium sp. NRC-1. […] In these experiments, it is unclear why AfERS and MmERS could not aminoacylate whole halobacterial tRNA in vitro (≦5 pmol/L). Without being limited to one theory, it is possible that the enzyme purification and/or assay conditions employed were deleterious to the aminoacylation activity of AfERS and MmERS. Another possibility is that subtle differences in tRNA identity elements might preclude recognition of a given archaeal tRNA^Glu by all archaeal glutamyl-tRNA synthetases. To test the latter, the activity of MmERS was investigated using the in vitro aminoacylation assay with whole tRNA derived from E. coli expressing the AE(GC) tRNA.

whole E. coli tRNA = experiment: in vitro aminoacylation assay with [3H]-glutamic acid, whole E. coli tRNA; assay type: biochemical; conditions: 750 nM synthetase, 15 minutes at 37° C.
Description: as §1
(§2) Orthogonality of archaeal glutamyl-tRNA synthetases in E. coli: The ampicillin IC50 measurements described above provide insights into the orthogonality of consensus-designed tRNAs, but provide no information about the orthogonality of archaeal glutamyl-tRNA synthetases in E. coli. To investigate synthetase orthogonality, the AfERS, MnERS, MtERS, and PhERS genes were inserted into a protein overexpression vector. E. coli glutamyl-tRNA synthetase (EcERS) was inserted into the same vector for use as a control. Synthetases were overexpressed in E. coli, purified to homogeneity, and used in an in vitro aminoacylation assay with whole tRNA prepared from either E. coli or the halophilic archaebacterium Halobacterium sp. NRC-1. […] In these experiments, it is unclear why AfERS and MmERS could not aminoacylate whole halobacterial tRNA in vitro (≦5 pmol/L). […]

[2] = test system: whole tRNA derived from E. coli expressing the AE(GC) tRNA; experiment: in vitro aminoacylation assay with whole tRNA from E. coli expressing AE(GC) tRNA; assay type: biochemical
Description: as §1, §2

[3] = synthetase co-expressed with AE(GU) tRNA

B1: AfERS: glutamyl-tRNA synthetase from A. fulgidus (protein, listed as Archaeoglobus fulgidus)
chain: VKEVIMKYVVQNAAKYGKASEKAVMGKVMAENPELRKKAKEVLELVKECITEFEALSEEVRKELIKKYSMDSEAKRELETKKLPELEGAEKGKVVMRFAPNPNGPPTLGSARGIIVNGEYAKMYEGKYIIRFDDTDPRTKRPMIEAYEWYLEDIEWLGYKPDEVIYASRRIPIYYDYARKLIEMGKAYTCFCSQEEFKKFRDSGEECPHRNISVEDTLEVWERMLEGDYEEGEVVLRIKTDMRHKDPAIRDWVAFRIIKESHPLVGDKYVVYPTLDFESAIEDHLLGITHIIRGKDLIDSERRQRYIYEYFGWIYPITKHWGRVKIFEFGKLSTSSIKKDIERGKYEGWDDPRLPTLRAFRRRGFEPEAIKSFFLSLGVGENDVSVSLKNLYAENRKIIDRKANRYFFIWGPVKIEIVNLPEKKEVELPLNPHTGEKRRLKGERTIYVTKDDFERLKGQVVRLKDFCNVLLDEKAEFMGFELEGVKKGKNIIHWLPESEAIKGKVIGEREAEGLVERNAVRDVGKVVQFERFAFCKVESADEELVAVYTHP
ampicillin IC50 fold higher than cells expressing AE(GU) alone [1, 3]: 7 fold

B2: MtERS: glutamyl-tRNA synthetase from M. thermoautotrophicum (protein, listed as Methanobacterium thermoautotrophicum)
chain: VVPVEDLVYRYALLNAVKHRGRANPGAVMGAVMSNEPELRKMAPQVKEAVEAAVERVNSLSPEEQQQEMERLGLEITERKQKKRKGLRELAGVKGEVVLRFAPNPSGPLHIGHARAAILNHEYARKYDGRLILRIEDTDPRRVDPEAYDMIPADLEWLGVEWDETVIQSDRMETYYEYTEKLIERGGAYVCTCRPEEFRELKNRGEACHCRSLGFRENLQRWREMFEMKEGSAVVRVKTDLNHPNPAIRDWVSMRIVEAEHPRTGTRYRVYPMMNFSVAVDDHLLGVTHVLRGKDHLANREKQEYLYRHLGWEPPEFIHYGRLKMDDVALSTSGAREGILRGEYSGWDDPRLGTLRAIARRGIRPEAIRKLMVEIGVKIADSTMSWKKIYGLNRSILEEEARRYFFAADPVKLEVVGLPGPVRVERPLHPDHPEIGNRVLELRGEVYLPGDDLGEGPLRLIDAVNVIYSGGELRYHSEGIEEARELGASMIHWVPAESALEAEVIMPDASRVRGVIEADASELEVDDVVQLERFGFARLDSAGPGMVFYYAHK
ampicillin IC50 fold higher than cells expressing AE(GU) alone [1, 3]: 6 fold | aminoacylation of whole archaeal (halobacterial) tRNA with [3H]-glutamic acid (whole halobacterial tRNA): 530 pmol/L

B3: EcERS: E. coli glutamyl-tRNA synthetase, used as a control (protein, UniProt P04805 1-471, looked up)
Glutamate--tRNA ligase: MKIKTRFAPSPTGYLHVGGARTALYSWLFARNHGGEFVLRIEDTDLERSTPEAIEAIMDGMNWLSLEWDEGPYYQTKRFDRYNAVIDQMLEEGTAYKCYCSKERLEALREEQMAKGEKPRYDGRCRHSHEHHADDEPCVVRFANPQEGSVVFDDQIRGPIEFSNQELDDLIIRRTDGSPTYNFCVVVDDWDMEITHVIRGEDHINNTPRQINILKALKAPVPVYAHVSMINGDDGKKLSKRHGAVSVMQYRDDGYLPEALLNYLVRLGWSHGDQEIFTREEMIKYFTLNAVSKSASAFNTDKLLWLNHHYINALPPEYVATHLQWHIEQENIDTRNGPQLADLVKLLGERCKTLKEMAQSCRYFYEDFAEFDADAAKKHLRPVARQPLEVVRDKLAAITDWTAENVHHAIQATADELEVGMGKVGMPLRVAVTGAGQSPALDVTVHAIGKTRSIERINKALDFIAERENQQ
aminoacylation of whole E. coli tRNA with [3H]-glutamic acid (whole E. coli tRNA): 14,000 pmol/L | aminoacylation of whole archaeal (halobacterial) tRNA with [3H]-glutamic acid (whole halobacterial tRNA): 1.7 pmol/L

B4: PhERS: glutamyl-tRNA synthetase from P. horikoshii (protein, listed as Pyrococcus horikoshii)
chain: MDVEKIALKHALINAIEHGGKANLKAVIGKVLGENPELRPRAKEIIPIINKVVEEVNSLARDEQLEKLKDIYPEYFEKKEEKKEKKGLPLLPKAEKGKVVTRFAPNPDGAFHLGNARAAILSYEYAKMYGGKFILRFDDTDPKVKRPEPIFYKMIIEDLEWLGIKPDEIVYASDRLEIYYKYAEELIKMGKAYVCTCPPEKFRELRDKGIPCPHRDEPVEVQLERWKKMLNGEYKEGEAVVRIKTDLNHPNPAVRDWPALRIIDNPNHPRTGNKYRVWPLYNFASAIDDHELGVTHIFRGQEHAENETRQRYIYEYFGWEYPVTIHHGRLSIEGVVLSKSKTRKGIEEGKYLGWDDPRLGTIRALRRRGILPEAIKELIIEVGLKKSDATISWENLAAINRKLVDPIANRYFFVADPIPMEVEGAPEFIAEIPLHPDHPERGVRRLKFTPERPVYVSKDDLNLLKPGNFVRLKDLFNVEILEVGDKIRARFYSFEYEIAKKNRWKMVHWVTEGRPCEVIIPEGDELVVRKGLLEKDAKVQVNEIVQFERFGFVRIDRIEGDKVIAIYAHK
ampicillin IC50 fold greater with AE(GC) tRNA than with AE(GU) tRNA [1]: ~3.5 fold | ampicillin IC50 fold higher than cells expressing AE(GU) alone [1, 3]: 12 fold | amber suppression efficiency fold less than that of the tyrosyl-tRNA synthetase ([1]; together with the AE(GC) tRNA in E. coli): ~2 fold | aminoacylation of whole archaeal (halobacterial) tRNA with [3H]-glutamic acid (whole halobacterial tRNA): 1100 pmol/L

B5: AE(GC): archaeal glutamyl consensus-derived amber suppressor tRNA, GC base pair at position 10-28 (nucleic acid)
chain: GCCCCGGUGGUGUAGCCCGGCCAAGCACGCGGGCCUCUAAAGCCCGCGACCCGGGUUCAAAUCCCGGCCGGGGCACCA
modifications: chemistry not fully specified
ampicillin IC50 fold increase relative to cells expressing AE(GU) tRNA alone ([1]; tRNA alone, no synthetase): 4 fold

B6: MmERS: glutamyl-tRNA synthetase from M. mazei (protein, listed as Methanosarcina mazeii)
chain: MTLSPEDIKIIEKYALQNAVKYGKAPQPKAVMGKVMGECPQLRADPSGVSAALENIVSEIAKGNPEAWEARLSEIAPELIEALSVKKEPDKGLKPLEGAETGKVVMRFAPNPNGPATLGSSRGMVVNSEYVKVYKGKFILRFDDTDPDIKRPMLEAYDWYMDDFKWLGVVPDQVVRASDRFPIYYDYARKLIEMGKAYVCFCKGEDFKRLKDSKKACPHRDTDPEENLMHWEKMLAGEYEDQQAVLRIKTDIEHKDPALRDWGAFRIRKMSHPRPEIGNKYIVWPLLDFAGAIEDHELGMTHIIRGKDLIDSEKRQTYIYKYFGWTYPKTTHWGRVKIHEFGKFSTSTLRKAIESGEYSGWDDPRLPTIRAIRRRGIRAEALKKFMIEMGVGMTDVSISMESLYAENRKIVDPVANRYFFVWNPVELEIEGMKPVVAKVPRHPTDHARGMREISIENKVLVCAEDIEKLNVGSVLRLKDLCNVEITSLSPLRVKRSETSLEDLKKAKGKIIHWVPVDGIPVKVCGPEGDIEGTGERGIETELDNIVQFERFGFCRIDAVDGENVVAYFAHK
ampicillin IC50 fold greater with AE(GC) tRNA than with AE(GU) tRNA [1]: 4.5 fold | ampicillin IC50 fold higher than cells expressing AE(GU) alone [1, 3]: 20 fold | ampicillin IC50 fold lower than M. jannaschii-derived tyrosine pair [1, 3]: 4.5 fold | ampicillin IC50 fold lower than M. thermoautotrophicum-derived leucine pair [1, 3]: 10 fold | aminoacylation activity [2]: no activity was observed
